Tests used:
[1] = target: T1, Nck (cysteine-modified; human, residues 1-377, C139S, C232A, C266S, C340S), fluorophore-labelled (human, C139S (stands in the printed letters) | C232A (stands in the printed letters) | …, maleimide Alexa568 (imaging of association and three color imaging) or Alexa488 (FRAP) on cysteine); assay: fluorescence (TIRF) microscopy of recruitment to a supported lipid bilayer; His8-p-Nephrin Alexa488 attached to a DOPC bilayer with 1% Ni2+-NTA DOGS; 1 uM Nck Alexa568 alone in solution; 25 mM Hepes pH 7.5, 150 mM NaCl, 1 mM MgCl2, 1 mM BME, 0.1% BSA; conditions: both partners purified
T1 construct: extra N-terminal residues printed before Met1, with the only cysteine left in the chain; Nck, human, residues 1-377 with C139S, C232A, C266S, C340S; The methods tell the expression and purification for GST-Nck; that the cysteine-modified form was made the same way is surmised; also called Nck Alexa568; Nck Alexa488; source: E. coli BL21(DE3)T1R, purified; labelled with a maleimide-conjugated …

[2] = target: T2, Nck (human, WT, residues 1-377) (human); assay: ITC; Nck (150 uM) in the syringe titrated into 5 uM p-Nephrin (3pY) or p-TIR (3pY); 25 mM Hepes pH 7.5, 150 mM NaCl, 1 mM MgCl2, 2 mM TCEP; three-site binding model with a single affinity for Nck (NITPIC, Sedphat); the constant is that of one pTyr site; conditions: both partners purified
T2 construct: two extra N-terminal residues printed before Met1; Nck, human, WT, residues 1-377; source: E. coli BL21(DE3)T1R, purified (glutathione sepharose, TEV on beads, Source 15Q, Source 15S, SD75)

Row | Binder | binding result [1] | Kd [2] [nM]
1 | triply phosphorylated His8-tagged Nephrin cytoplasmic tail (amino acids 1174-1223, Y1183F, Y1210F; pTyr1176, pTyr1193, pTyr1217) (domain or fragment, human, phosphotyrosine at Tyr1176, Tyr1193 and Tyr1217; maleimide Alexa488 on the single cysteine of the linker (bilayer experiments), N-terminal stretch as printed: holds the His8 tag named under tags and the (Gly-Gly-Ser)5 linker with the cysteine that is labelled; Nephrin, human, cytoplasmic tail residues 1174-1223 with Y1183F and Y1210F; also called p-Nephrin; Nephrin3Y (before phosphorylation); source: E. coli BL21(DE3)T1R, purified (Ni-NTA, Source 15Q, SD200); phosphorylated with Lck kinase and purified again (Source 15Q, …)) GGSLEHHHHHHHHGGSCGGSGGSGGSGGSHLYDEVERTFPPSGAWGPLYDEVQMGPWDLHWPEDTFQDPRGIYDQVAGD | binds | 370
2 | triply phosphorylated TIR3Y (His8-tagged human Nephrin tail with its pTyr sites replaced by the pTyr motif of EPEC Tir) (domain or fragment, phosphotyrosine in each of the three Tir motifs (triply phosphorylated); fluorescent in the bilayer experiments, N-terminal stretch as printed: holds the His8 tag named under tags, the Gly-Gly-Ser linker with the cysteine, and HM before the first Tir motif; Nephrin, human, stretch between the first and second pTyr sites; Nephrin, human, stretch between the second and third pTyr sites, with Phe at 1210 as in Nephrin3Y; also called p-TIR; p-TIR (3pY); source: E. coli BL21(DE3)T1R, purified (told for …)) GGSLEHHHHHHHHGGSCGGSGGSGGSGGSHMHIYDEVAADPPPSGAWGHIYDEVAADPWDLHWPEDTFQDPRHIYDEVAADP |  | 40

— publication PMC4238058, “Phase transitions of multivalent proteins can promote clustering of membrane receptors” (eLife, 2014)
